The values below come from the supplement of paper PMC10567573.

To fix the notation:
B1: ANKRD9 (parent)
chain: LLEDMRASEAFHWDERGRAAAYSP
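Further: lentivirally expressed fusions sorted by FACS into six bins by GFP to DsRed ratio, PSI derived from sequencing read proportions per bin multiplied by bin number.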

The variants in the data set derive from B1. The data set can be described thus: protein stability index of a GFP-peptide fusion (GPS, HEK-293T) (PSI 1-6); higher = more stable. The settings on record: c terminus: a fixed tail appended.
For LLEDMRATEAFHWDERGRAAAYSP [S8T], the protein stability index is 1.82.

As for LLEDMRAVEAFHWDERGRAAAYSP [S8V], the protein stability index was 2.82.

With LLEDMRAAEAFHWDERGRAAAYSP [S8A], the protein stability index was 3.3.

Regarding LLEDMRAWEAFHWDERGRAAAYSP [S8W], the protein stability index was found to be 3.13.

Consider LLEDMRASEAFHWTERGRAAAYSP [D14T], for which the protein stability index stood at 2.57.

In the case of LLEDMRASEAFHWLERGRAAAYSP [D14L], the protein stability index is 2.09.

On to LLEDMRASEAFHWVERGRAAAYSP [D14V], for which the protein stability index worked out at 1.35.

LLEDMRASEAFHWRERGRAAAYSP [D14R]: the protein stability index was 2.29.

In the case of LLEDMRASEAFHWWERGRAAAYSP [D14W], the protein stability index amounted to 2.41.

Turning to LLEDMRASEAFHWQERGRAAAYSP [D14Q], the protein stability index amounted to 1.58.

For LLEDMRASEAFHWMERGRAAAYSP [D14M], the protein stability index came to 2.33.

With LLEDMRASEAFHWHERGRAAAYSP [D14H], the protein stability index stood at 2.13.

For the variant LLEDMRASEAFHWIERGRAAAYSP [D14I], the protein stability index was 1.77.

As to LLEDMRASEAFHWNERGRAAAYSP [D14N], the protein stability index came out at 2.11.

With LLEDMRASEAFHWFERGRAAAYSP [D14F], the protein stability index amounted to 1.36.

As to LLEDMRASEAFHWPERGRAAAYSP [D14P], the protein stability index was found to be 1.6.

With LLEDMRASEAFHWKERGRAAAYSP [D14K], the protein stability index turned out to be 1.41.

LLEDMRASEAFHWYERGRAAAYSP [D14Y]: the protein stability index came to 1.98.

On to LLEDMWASEAFHWDERGRAAAYSP [R6W], for which the protein stability index came out at 1.87.

On to LLEDMHASEAFHWDERGRAAAYSP [R6H], for which the protein stability index was 2.95.

LLEDMSASEAFHWDERGRAAAYSP [R6S]: the protein stability index worked out at 2.9.

As to LLEDMNASEAFHWDERGRAAAYSP [R6N], the protein stability index came out at 2.97.

On to LLEDMFASEAFHWDERGRAAAYSP [R6F], for which the protein stability index is 2.79.

On to LLEDMPASEAFHWDERGRAAAYSP [R6P], for which the protein stability index stood at 3.27.

As to LLEDMAASEAFHWDERGRAAAYSP [R6A], the protein stability index was determined as 3.56.

LLEDMYASEAFHWDERGRAAAYSP [R6Y]: the protein stability index was 2.43.

LLEDMVASEAFHWDERGRAAAYSP [R6V]: the protein stability index came out at 2.43.

As to LLEDMMASEAFHWDERGRAAAYSP [R6M], the protein stability index was found to be 2.17.

As for LLEDMEASEAFHWDERGRAAAYSP [R6E], the protein stability index amounted to 3.96.

On to LLEDMTASEAFHWDERGRAAAYSP [R6T], for which the protein stability index is 2.5.

As for LLEDMIASEAFHWDERGRAAAYSP [R6I], the protein stability index worked out at 2.32.

As for LLEDMDASEAFHWDERGRAAAYSP [R6D], the protein stability index worked out at 4.03.

As to LLEDMCASEAFHWDERGRAAAYSP [R6C], the protein stability index was determined as 3.6.

On to LLEDMLASEAFHWDERGRAAAYSP [R6L], for which the protein stability index came out at 1.1.

In the case of LLEDMKASEAFHWDERGRAAAYSP [R6K], the protein stability index was found to be 2.85.

Consider LLEDMRYSEAFHWDERGRAAAYSP [A7Y], for which the protein stability index was 1.8.

On to LLEDMRPSEAFHWDERGRAAAYSP [A7P], for which the protein stability index turned out to be 4.21.

For the variant LLEDMRISEAFHWDERGRAAAYSP [A7I], the protein stability index was 1.96.

For the variant LLEDMRDSEAFHWDERGRAAAYSP [A7D], the protein stability index was determined as 2.51.

Take LLEDMRESEAFHWDERGRAAAYSP [A7E]: the protein stability index stood at 1.27.

Regarding LLEDMRKSEAFHWDERGRAAAYSP [A7K], the protein stability index turned out to be 1.52.

Consider LLEDMRSSEAFHWDERGRAAAYSP [A7S], for which the protein stability index stood at 1.78.

LLEDMRRSEAFHWDERGRAAAYSP [A7R]: the protein stability index came out at 1.76.

On to LLEDMRHSEAFHWDERGRAAAYSP [A7H], for which the protein stability index is 3.62.

As for LLEDMRWSEAFHWDERGRAAAYSP [A7W], the protein stability index turned out to be 2.3.

On to LLEDMRFSEAFHWDERGRAAAYSP [A7F], for which the protein stability index worked out at 2.64.

Regarding LLEDMRVSEAFHWDERGRAAAYSP [A7V], the protein stability index came to 2.35.

Turning to LLEDMRQSEAFHWDERGRAAAYSP [A7Q], the protein stability index was 1.8.

Turning to LLEDMRGSEAFHWDERGRAAAYSP [A7G], the protein stability index amounted to 3.01.

For LLEDMRTSEAFHWDERGRAAAYSP [A7T], the protein stability index is 2.15.

Take LLEDMRMSEAFHWDERGRAAAYSP [A7M]: the protein stability index worked out at 2.34.

As for LLEDMRCSEAFHWDERGRAAAYSP [A7C], the protein stability index amounted to 1.8.

Consider LLEDMRLSEAFHWDERGRAAAYSP [A7L], for which the protein stability index came to 2.19.

As for LLEDMRASEHFHWDERGRAAAYSP [A10H], the protein stability index came to 2.7.

Regarding LLEDMRASEKFHWDERGRAAAYSP [A10K], the protein stability index stood at 1.97.

Regarding LLEDMRASESFHWDERGRAAAYSP [A10S], the protein stability index came to 1.85.

As to LLEDMRASEGFHWDERGRAAAYSP [A10G], the protein stability index is 2.46.

LLEDMRASEFFHWDERGRAAAYSP [A10F]: the protein stability index is 2.1.

Consider LLEDMRASECFHWDERGRAAAYSP [A10C], for which the protein stability index stood at 1.39.

With LLEDMRASEPFHWDERGRAAAYSP [A10P], the protein stability index was 3.58.

Consider LLEDMRASETFHWDERGRAAAYSP [A10T], for which the protein stability index worked out at 2.44.

Turning to LLEDMRASEVFHWDERGRAAAYSP [A10V], the protein stability index turned out to be 1.5.

As for LLEDMRASEDFHWDERGRAAAYSP [A10D], the protein stability index stood at 1.23.

For LLEDMRASEWFHWDERGRAAAYSP [A10W], the protein stability index came to 1.94.

For the variant LLEDMRASELFHWDERGRAAAYSP [A10L], the protein stability index amounted to 2.82.

In the case of LLEDMRASEEFHWDERGRAAAYSP [A10E], the protein stability index came to 1.81.

LLEDMRASERFHWDERGRAAAYSP [A10R]: the protein stability index came to 1.86.

Take LLEDMRASEMFHWDERGRAAAYSP [A10M]: the protein stability index is 1.94.

For the variant LLEDMRASENFHWDERGRAAAYSP [A10N], the protein stability index amounted to 1.54.

In the case of LLEDMRASEAFHWDERNRAAAYSP [G17N], the protein stability index was 2.52.

On to LLEDMRASEAFHWDERRRAAAYSP [G17R], for which the protein stability index came out at 2.06.

For the variant LLEDMRASEAFHWDERHRAAAYSP [G17H], the protein stability index was 1.44.

LLEDMRASEAFHWDERVRAAAYSP [G17V]: the protein stability index was 3.02.

With LLEDMRASEAFHWDERTRAAAYSP [G17T], the protein stability index came out at 1.42.

In the case of LLEDMRASEAFHWDERKRAAAYSP [G17K], the protein stability index came out at 1.78.

With LLEDMRASEAFHWDERFRAAAYSP [G17F], the protein stability index was determined as 2.59.

LLEDMRASEAFHWDERERAAAYSP [G17E]: the protein stability index came to 2.31.

In the case of LLEDMRASEAFHWDERCRAAAYSP [G17C], the protein stability index amounted to 2.39.

LLEDMRASEAPHWDERGRAAAYSP [F11P]: the protein stability index is 2.5.

For the variant LLEDMRASEAKHWDERGRAAAYSP [F11K], the protein stability index stood at 3.72.

Regarding LLEDMRASEALHWDERGRAAAYSP [F11L], the protein stability index stood at 1.98.

Turning to LLEDMRASEANHWDERGRAAAYSP [F11N], the protein stability index was 2.84.

With LLEDMRASEASHWDERGRAAAYSP [F11S], the protein stability index came to 2.91.

In the case of LLEDMRASEAYHWDERGRAAAYSP [F11Y], the protein stability index stood at 2.03.

On to LLEDMRASEAHHWDERGRAAAYSP [F11H], for which the protein stability index was 2.66.

LLEDMRASEAMHWDERGRAAAYSP [F11M]: the protein stability index turned out to be 2.28.

On to LLEDMRASEADHWDERGRAAAYSP [F11D], for which the protein stability index is 3.58.

LLEDMRASEAEHWDERGRAAAYSP [F11E]: the protein stability index came out at 1.74.

With LLEDMRASEARHWDERGRAAAYSP [F11R], the protein stability index was 2.87.

In the case of LLEDMRASEATHWDERGRAAAYSP [F11T], the protein stability index was 2.5.

Consider LLEDMRASEAGHWDERGRAAAYSP [F11G], for which the protein stability index came to 3.23.

On to LLEDMRASEAQHWDERGRAAAYSP [F11Q], for which the protein stability index amounted to 2.32.

In the case of LLEDMRASEAIHWDERGRAAAYSP [F11I], the protein stability index amounted to 1.78.

In the case of LLEDMRASEAAHWDERGRAAAYSP [F11A], the protein stability index was 2.71.
